± gives the uncertainty stated by the source.

These results are taken from the supplement of paper PMC12042874.

This data set can be described thus: amyloid nucleation score (Sup35N fusion, yeast selection) (log enrichment); library NNK3; higher = more nucleation; inactive = no reads after selection. A digest of the protocol:
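Output and input plasmid inserts were sequenced by Illumina after psi-negative yeast carrying Sup35N fused to peptides of 20 random codons had been induced 24 hours with 100 μM copper sulfate and grown 7 days at 30°C on medium lacking adenine and uracil. The nucleation score is the DiMSum log enrichment of output over input reads, centred on the mode score of non-aggregating sequences. Sequences with under 100 input reads were excluded.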
Consider FSGNRSGESSVRWNQYELGV, for which the amyloid nucleation score result is “inactive”.

Take FSGRFHMENTMYHTIYKIKS: the amyloid nucleation score entry is “inactive”.

On to FSISKLGCCYVTAMVVSASR, for which the amyloid nucleation score entry was “inactive”.

In the case of FSLDPTIVMSVIARDSMSML, the amyloid nucleation score result is “inactive”.

As to FSLFS, the amyloid nucleation score result is “inactive”.

On to FSLHNRGFMIQHKRVLEDGA, for which the amyloid nucleation score result is “inactive”.

For the substance FSLHQSNTLRPWDLIPATW, the amyloid nucleation score result is “inactive”.

As to FSLLCFRSWANPIVTMYKYY, the amyloid nucleation score entry is “inactive”.

Regarding FSLMLSRTTMAIFTDIRDWG, the amyloid nucleation score result is “inactive”.

As to FSLSQLLVCFWADSRSMKWT, the amyloid nucleation score result is “inactive”.

In the case of FSLWEHPVKIMCLFVYVACG, the amyloid nucleation score result is “inactive”.

Take FSNDFFCLCPS: the amyloid nucleation score entry is “inactive”.

In the case of FSNGPSAVYYFIYLGLFNKN, the amyloid nucleation score came out at 1.48 ± 0.072.

Regarding FSRGLNHYNLYNFGGLCICT, the amyloid nucleation score was 2.91 ± 0.07.

In the case of FSSCDHRFWTFLIKFMLLAL, the amyloid nucleation score entry is “inactive”.

For FSSYTWNPL, the amyloid nucleation score result is “inactive”.

FSVIMFMNLRAQFASMDRGG: the amyloid nucleation score was 1.59 ± 0.12.

For the substance FSVLVSCSWGMKFI, the amyloid nucleation score entry was “inactive”.

Turning to FSVYVAG, the amyloid nucleation score entry is “inactive”.

FSYSSRGVYYG: the amyloid nucleation score was -0.649 ± 0.98.

FSYVPQAILYLCLYYNVVHT: the amyloid nucleation score entry is “inactive”.

As for FTCEPARFKDYQWNNEGYCL, the amyloid nucleation score entry was “inactive”.

As to FTCQSHAILGVDDDTWGRTN, the amyloid nucleation score entry is “inactive”.

Take FTFRLVKNTTLNGIYFCIKR: the amyloid nucleation score came to 0.787 ± 0.18.

In the case of FTINV, the amyloid nucleation score entry was “inactive”.

Regarding FTIVTQCEPTRLSCISDNIR, the amyloid nucleation score result is “inactive”.

On to FTLDYLNSGSI, for which the amyloid nucleation score entry is “inactive”.

Turning to FTLPKHFTRIL, the amyloid nucleation score entry was “inactive”.

Take FTMALMLALTTGISSMSVGG: the amyloid nucleation score came out at 0.345 ± 0.37.

Regarding FTPLCSNVAGRNMEQYCS, the amyloid nucleation score entry was “inactive”.

As to FTWIFRFMPIWHACDKRVFE, the amyloid nucleation score turned out to be 1.71 ± 0.088.

Turning to FVANISFWFSVFNRVYESYT, the amyloid nucleation score is 0.841 ± 0.1.

On to FVFIVCMCSSTWAQMYGLNW, for which the amyloid nucleation score was 1.25 ± 0.084.

In the case of FVGVYKMGFASCSMSGSGWV, the amyloid nucleation score result is “inactive”.

Consider FVHRLPGWGSKLKTIRTCSN, for which the amyloid nucleation score result was “inactive”.

In the case of FVLKRYRCFLYLVQYDISTL, the amyloid nucleation score was -0.326 ± 0.98.

FVRLHSFA: the amyloid nucleation score result was “inactive”.

As for FVSEFMTSSTYLVPTVHITV, the amyloid nucleation score result is “inactive”.

For FVSGYVVALCYPWQGCPGVC, the amyloid nucleation score was 1.97 ± 0.093.

FVSLALGFGILSFYKDRLWD gave an amyloid nucleation score of 0.598 ± 0.33.

As to FVSPNLIVMVWVHWRSEINR, the amyloid nucleation score result is “inactive”.

With FVTAKQCVVCRQ, the amyloid nucleation score entry is “inactive”.

In the case of FVTSVQVRFNMGFFAELFAV, the amyloid nucleation score result is “inactive”.

FVVLLGFYHLASQDAYRGAL yielded an amyloid nucleation score of 1.09 ± 0.14.

FVYSCNC showed an amyloid nucleation score of 2.34 ± 0.08.

On to FWCIYS, for which the amyloid nucleation score entry is “inactive”.

The substance FWFWMIVDNRWYSLAVEARW registered an amyloid nucleation score of -0.304 ± 0.8.

FWKKLWNSSF: the amyloid nucleation score result was “inactive”.

Consider FWPMFSVVVRRRKFHSTPVH, for which the amyloid nucleation score result was “inactive”.

For the substance FWTLDRLRMLYVAILQPWSD, the amyloid nucleation score result was “inactive”.

Consider FWVVISLMSSRVTVASDDHI, for which the amyloid nucleation score result is “inactive”.

As for FWWKSYFFNLKV, the amyloid nucleation score result was “inactive”.

Take FYEVRVRRVRVHVKEQPLLH: the amyloid nucleation score is -0.406 ± 1.3.

In the case of FYFDRTSVIMRLFSMWNNFG, the amyloid nucleation score result was “inactive”.

Turning to FYFPLYDL, the amyloid nucleation score entry was “inactive”.

As to FYKAFIL, the amyloid nucleation score result is “inactive”.

Take FYKLTLRSVRFLSFTYRIGA: the amyloid nucleation score entry is “inactive”.

Turning to FYLGEYETLFVKDIRGDSVP, the amyloid nucleation score is -0.97 ± 1.1.

In the case of FYLGLAYVLSWVGFCVIGVS, the amyloid nucleation score result was “inactive”.

FYLHSFRLNHSLRDLSDLGE: the amyloid nucleation score result is “inactive”.

As to FYMLMISSQYFVTRLAPYFP, the amyloid nucleation score was -0.015 ± 0.87.

As for FYPLYSNEHCCG, the amyloid nucleation score result was “inactive”.

Regarding FYPTNGSGSRVLMHGNSMLC, the amyloid nucleation score result is “inactive”.

Take FYRRNAI: the amyloid nucleation score entry was “inactive”.

Consider FYSCGNDAASMLFRLTSGGI, for which the amyloid nucleation score result was “inactive”.

Consider FYSFWYPFTVSAMRLYWCSW, for which the amyloid nucleation score entry is “inactive”.

Substance FYTFYSHLNELLHL registered an amyloid nucleation score of -0.009 ± 0.66.

Take FYVPVYGERV: the amyloid nucleation score entry is “inactive”.

In the case of FYVVNSWPRMMCGQARILCL, the amyloid nucleation score result is “inactive”.

Take FYWSFIRLFRS: the amyloid nucleation score result is “inactive”.

Regarding FYYANMTRSKILAPFSRPSR, the amyloid nucleation score entry was “inactive”.

Substance FYYDYSLCPCYYVGDYEHES came in with an amyloid nucleation score of 2.41 ± 0.056.

Take FYYLTKSGYAFRLSKTSP: the amyloid nucleation score entry was “inactive”.

In the case of GAFPRGSS, the amyloid nucleation score entry is “inactive”.

Turning to GANKVSNRRVMSSDPTSQCL, the amyloid nucleation score result is “inactive”.

With GAQAKC, the amyloid nucleation score result was “inactive”.

In the case of GAQKYSFPRVSWPILGRIDY, the amyloid nucleation score entry is “inactive”.

As for GATNDH, the amyloid nucleation score result was “inactive”.

GAVLLSGEEL: the amyloid nucleation score came to 0.871 ± 0.17.

With GCAKVKLI, the amyloid nucleation score was -0.292 ± 0.75.

On to GCASRLFVGWRGSCRMCGTY, for which the amyloid nucleation score entry is “inactive”.

As for GCECGISHLVLGAKVVPSMI, the amyloid nucleation score entry was “inactive”.

In the case of GCGPLNFSVESHQCLKS, the amyloid nucleation score result was “inactive”.

On to GCGRTEMNVSMSGPSRMVDL, for which the amyloid nucleation score result was “inactive”.

In the case of GCKRSSGKRFLCRGAPCDEW, the amyloid nucleation score result was “inactive”.

For GCLEFGVMEFPGEDEFNFLG, the amyloid nucleation score entry is “inactive”.

Take GCLIAGYKKRDANKFCGVAL: the amyloid nucleation score entry is “inactive”.

Take GCLVRCDFVSQCLNWDG: the amyloid nucleation score result is “inactive”.

GCPIFAIFFDLTLCDNARYM yielded an amyloid nucleation score of 2.47 ± 0.08.

Regarding GCSRWCFGDTGIE, the amyloid nucleation score entry was “inactive”.

Take GCVMVKSSLMFSLLR: the amyloid nucleation score is -0.883 ± 1.2.

Take GDCVLDPDLRSWDEW: the amyloid nucleation score result was “inactive”.

In the case of GDFTSLDVVYYGNDCTLF, the amyloid nucleation score entry is “inactive”.

Take GDKISANACSMNFFDMFW: the amyloid nucleation score entry is “inactive”.

Consider GDSGPDKKWHFTKY, for which the amyloid nucleation score entry is “inactive”.

In the case of GDTHESFVGRTVYPDRLESH, the amyloid nucleation score entry is “inactive”.

Turning to GECTWTDVPMANSPRFVSEY, the amyloid nucleation score entry is “inactive”.

For GEKIDRVM, the amyloid nucleation score result is “inactive”.

Take GELRPLIVGDNLGLS: the amyloid nucleation score entry was “inactive”.

As for GESNLCDAG, the amyloid nucleation score entry is “inactive”.

Take GFCICEYDRCTIFSYNHYGA: the amyloid nucleation score came to 2.94 ± 0.054.

For GFINKDVF, the amyloid nucleation score entry was “inactive”.

GFLTKCALWKIWF: the amyloid nucleation score entry is “inactive”.

In the case of GFPKWDESSMSTFDCSIRSR, the amyloid nucleation score result was “inactive”.

As to GFRECTRNFFL, the amyloid nucleation score is 0.361 ± 0.17.

For GFSGPSLGQIAG, the amyloid nucleation score result was “inactive”.

GFSNFQEVVGILYCQFWVLL: the amyloid nucleation score worked out at 1.33 ± 0.075.

Turning to GFSNITMCLA, the amyloid nucleation score entry is “inactive”.

GFTRFFYLSRLMVGNMI: the amyloid nucleation score entry is “inactive”.

Take GFWLGVMVTHTSTTYSAFTP: the amyloid nucleation score amounted to 0.059 ± 0.29.

In the case of GGARMRFDQFMRHRATLASV, the amyloid nucleation score entry is “inactive”.

Take GGDSPNDARRFFNFHIYNIW: the amyloid nucleation score was 2.05 ± 0.08.

As for GGFVLC, the amyloid nucleation score result was “inactive”.

On to GGKHPGMCFHCEWLGYWFTS, for which the amyloid nucleation score entry is “inactive”.

With GGKLGTLCSNSRYGSVHMGV, the amyloid nucleation score result is “inactive”.

Take GGLVSCLSAARIGHHGASLE: the amyloid nucleation score entry is “inactive”.

In the case of GGNSWITSMLAYWLTSAHNA, the amyloid nucleation score entry is “inactive”.

For GGYRVGFYQY, the amyloid nucleation score entry is “inactive”.

As to GHGSFE, the amyloid nucleation score entry is “inactive”.

Substance GHMTVSTWWNIVYMAKGYRV came in with an amyloid nucleation score of -0.425 ± 0.8.

Turning to GHSGKVVL, the amyloid nucleation score result is “inactive”.

In the case of GICNQNIPQRGSMWLVSKTF, the amyloid nucleation score result is “inactive”.

Consider GIEADYSYMSGEGKAVCSSM, for which the amyloid nucleation score result was “inactive”.

Consider GIGCDLFRCADTRWIVLPSM, for which the amyloid nucleation score result was “inactive”.

Turning to GILRQRIYFSM, the amyloid nucleation score result was “inactive”.

With GIMMSD, the amyloid nucleation score result is “inactive”.

For GKCRQGYTRMWHNYMLMGIL, the amyloid nucleation score result is “inactive”.

Regarding GKDVHMKGNSKRSVWYVPQG, the amyloid nucleation score entry was “inactive”.

GKGSNASIGVITVDTVYIVA displayed an amyloid nucleation score of 1.42 ± 0.09.

GKLYPKNVSWILFSAETYLY: the amyloid nucleation score came to 2.54 ± 0.075.

As for GKSTYVLFGKWNTEKTRNRG, the amyloid nucleation score result is “inactive”.

Take GKYVVIDIGRSYFSKISGFR: the amyloid nucleation score result was “inactive”.
